Positions count from the first letter of the chain named. Names may count otherwise.
What was measured:
[1] = test system: ubiquitylation in reticulocyte lysate; experiment: Ubiquitylation assay using Sulfo-TAG labeled FK2 antibody, streptavidin magnetic beads, M-8 Analyzer; assay type: biochemical, rabbit
Procedure: Transcription-translation reaction mixtures containing pcDNA3-RGS4 or pcDNA3-RGS4-C2V plazmids(Davydov and Varshavsky, 2000, J. Biol. Chem., 275:22931–22941) were prepared and used as described in the Example 2. The reaction products were mixed with 3 μg Sulfo-TAG labeled FK2 antibody in a 96-well plate in a binding buffer. Sulfo-TAG labeled FK2 antibody had 5.6 Sulfo-TAG labels per antibody molecule. […] Then 30 μl of BB1 supplemented with 20 mM AMP-PNP, 20 mM N-ethylmaleimide and containing 20 μg dynal beads streptavidin (Dynal) were added to each well, and the plate was left on the shaker at room temperature for another hour to allow for binding of biotinylated proteins to dynal beads. Thereafter the volume in each well was adjusted to 200 μl with BB1, and ECL signals were measured in M-8 Analyzer (IGEN International, Inc., Gaithersburg Md.).

[2] = test system: ubiquitin-proteasome system (N-end rule pathway) in reticulocyte lysate; experiment: ECL assay for ubiquitylation in reticulocyte lysate using Sulfo-TAG-labeled Ub, streptavidin-coated IPR plate; assay type: biochemical, rabbit; conditions: for IPR readings, Experiment 1 / IPR readings, Experiment 2: Sulfo-TAG-labeled Ub, reticulocyte lysate +
Procedure: (§1) Binding Buffer 2 (BB2) refers to 25 mM Tris-HCl buffer pH 7.4 containing 100 mM NaCl, 0.05 mM Na3VO4, 0.004% TritonX-100, 2 mM DTT and protease inhibitors (protease inhibitor cocktail, EDTA free, Roche Applied Science). Proteins were produced by coupled transcription/translation using TnT reaction mixes (Promega Corp, WI). The TNT Quick coupled transcription-translation system (Promega) contains rabbit reticulocyte lysate pre-mixed with most of the reaction components necessary to carry out transcription and translation in vitro (TNT mix), including all the amino acids except methionine. Unless otherwise noted, biotin-labeled in vitro translated proteins were produced in reaction mixtures that contained 8–30 μg/ml of a selected plasmid encoding protein of interest, 5 μl of TNT T7 Quick reticulocyte lysate mix (Promega Corp, WI) or TnT SP6 Quick Coupled Transcription/Translation System (Promega Corp, WI), 20 μM methionine, 50 μM MG-132 (Calbiochem, proteasome inhibitor to inhibit degradation of ubiquitylated proteins by proteasome) and 20 μg/ml biotinylated Lys-tRNA (transcend tRNA, Promega). The reactions were allowed to proceed for 20–90 min at 30° C. The reactions were stopped by the addition of BB1 supplemented with 20 mM AMP-PNP (Sigma, a non-hydrolyzable ATP analog), 20 mM N-ethylmaleimide (Sigma, an irreversible inhibitor of deubiquitylating enzymes) or, alternatively, by the addition of BB2. BB1 was used in screens involving the ubiquitination pathway. BB2 was used for other assay formats. The produced proteins were used in the assays of interest with or without further purification.
RGS4 was produced by transcription/translation of 30 μg/ml plasmid pcDNA3-RGS4 (Davydov and Varshavsky, 2000, J. Biol. Chem., 275:22931–22941) under the conditions described in Materials and Methods except for the addition of 1 μM Ub aldehyde (Calbiochem, to inhibit deubiquitylating enzymes) and 5 μM Sulfo-Tag-labeled Ub (having an average of 4.1 labels per Ub molecule). Then 3 μl of the reaction was mixed with 50 μl of BB1 in a 96-well streptavidin-coated non-plasma treated IPR (NPT IPR) plate.

[3] = test system: ubiquitylation in reticulocyte lysate; experiment: ECL ubiquitylation assay using Sulfo-TAG-labeled FK2 antibody and streptavidin-coated IPR plate; assay type: biochemical, rabbit
Procedure: The protein was prepared as described Example 2 and mixed with 60 μg/ml Sulfo-TAG-labeled FK2 antibody (Affiniti) having 5.6 labels per antibody, in a streptavidin-coated NPT IPR plate.

[4] = test system: N-end rule pathway ubiquitylation in reticulocyte lysate; experiment: ECL ubiquitylation assay using Sulfo-TAG-labeled streptavidin and IPR plate coated with FK2 antibody; assay type: biochemical, rabbit; conditions: for IPR readings, Experiment 1 / IPR readings, Experiment 2: no dipeptide inhibitor
Procedure: as §1
Transcription-translation reaction mixtures were prepared as described in the Example 1 except that no labeled ubiquitin was added. Some reactions also contained 1 mM dipeptide inhibitor of the N-end rule pathway (either Arg-β-Ala, or Trp-Ala) together with 50 μM bestatin as indicated (Table 2). The reaction was allowed to proceed for 20 min at 30° C. Then 1 μl of the reaction was mixed with 50 μl of BB1 supplemented with 20 mM AMP-PNP, 20 mM N-ethylmaleimide, and 2 μg/ml Sulfo-TAG-labeled streptavidin in a well of an IPR plate coated with an anti-ubiquitin antibody (FK2 antibody, Affiniti). […] In a typical assay the presence of RGS4-encoding plasmid produced a 30–100 fold higher ECL signal compared to the empty vector (FIG. 2, Table 2). This signal was reduced 3–4 fold in the presence of Arg-β-Ala (a type 1 inhibitor of the N-end rule pathway), but not in the presence of Trp-Ala (a type 2 inhibitor of the N-end rule pathway) in agreement with the previous report that RGS4 is a type 1 N-end rule substrate in reticulocyte lysates (Davydov and Varshavsky, 2000, J. Biol. Chem., 275:22931–22941). In the same assay RGS4 produced 3–5 fold higher ECL signal compared to RGS4C2V, when the same amounts of the corresponding plasmids were added to the reaction mixtures (Table 2).

[5] = test system: ubiquitylation in reticulocyte lysate; experiment: Ubiquitylation assay using Sulfo-TAG labeled Ub, streptavidin magnetic beads, M-8 Analyzer; assay type: biochemical, rabbit
Procedure: Then 10 μl of the reaction product was mixed with 50 μl of BB1 supplemented with 20 mM AMP-PNP, 20 mM N-ethylmaleimide, and 20 μg streptavidin coated magnetic beads (Streptavidin Dyna-Beads, Dynal) in a 96-well plate. […] Thereafter the volume in each well was adjusted to 200 μl with binding buffer, and ECL signals were measured in M-8 Analyzer (IGEN International, Inc., Gaithersburg, Md.).

[6] = target: T1, pY1068 peptide (SEQ ID NO: 7) (Homo sapiens, UniProt P00533); experiment: 96-well screen for phosphopeptide binding proteins, 7-spot IPR plates; conditions: two steps of normalization; top 9 clones
T1 construct: phosphotyrosine at Tyr1068 (chemical modification); purchased New England Peptide, Fitchburg Mass; host or cells: chemical synthesis
Procedure: A screen was conducted using 7-spot IPR plates. The 7 spot NPT IPR plates are described in more detail in copending Provisional Application No. 60/301,932 (entitled “Assay Plates, Reader Systems and Methods for Luminescence Test Measurements”, filed on Jun. 29, 2001, hereby incorporated by reference) and particularly in the description of Plate Type D in Example 6.1 (NPT IPR plate) and U.S. application Ser. Nos. 10/185,274 and 10/185,363, filed Jun. 28, 2002, each hereby incorporated by reference. These plates consist of a 96 wells with 7 zones (spots) for the immobilization of proteins or other reagents. Each spot was coated with BSA conjugated to either a single phosphopeptide or multiple phosphopeptides.
The plates were prepared essentially as described in example 12. The seven spots supported, respectively, the following BSA conjugates IkB, pY992, pY1068, pY1148, Myc, “A”, and “6-P”. “A” refers to a conjugate of BSA with multiple peptides: IkB, pY1148, Myc which were then coupled to BSA. “6-P” refers to a conjugate of BSA with the following multiple peptides: IkB, pY1148, pY992, pY1068, Smad3C.
For the assay, 4 ul from TnT reaction product described above were added to the coated plate containing 50 μl of binding buffer supplemented with 50 ng/well Ru-Streptavidin. The binding reaction was allowed to proceed at room temperature for 1 hour with constant shaking. […] The ECL signals were measured using an imaging plate reader (IPR). The raw data from the IPR reader was then normalized using two steps of normalization. The first round was based on the 50 lowest values for a given specific spot.

[7] = test system: autophosphorylation (phosphotyrosine); experiment: In vitro kinase library screen: autophosphorylation; assay type: biochemical
Outline: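 Biotinylated SYK and EphA7 from in vitro transcription/translation, immobilized on streptavidin/avidin plates; autophosphorylation overnight at room temperature with 5 mM MgCl2, 5 mM MnCl2, 100 μM ATP, pH 7.4. Phosphotyrosine detected by Sulfo-TAG anti-phosphotyrosine (45 min) and ECL read-out.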

pEY = experiment: In vitro kinase library screen: activity towards pEY; assay type: biochemical; conditions: 5 ul of expressed protein
Outline: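 Kinases made by in vitro transcription/translation, immobilised on streptavidin/avidin plates and washed with Tris/Triton and high-salt buffers. Incubated overnight at room temperature with 5 nM pEY, 100 µM ATP, Mg2+/Mn2+ and vanadate at pH 7.4. Phospho-pEY captured with biotinylated PY20 and detected by Sulfo-TAG anti-phosphotyrosine ECL.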

B1: RGS4: Regulator of G-protein signaling 4, in vitro translated from plasmid pcDNA3-RGS4 (protein, UniProt P49798 1-205, looked up)
Regulator of G-protein …: MCKGLAGLPASCLRSAKDMKHRLGFLLQKSDSCEHNSSHNKKDKVVICQRVSQEEVKKWAESLENLISHECGLAAFKAFLKSEYSEENIDFWISCEEYKKIKSPSKLSPKAKKIYNEFISVQATKEVNLDSCTREETSRNMLEPTITCFDEAQKKIFNLMEKDSYRRFLKSRFYLDLVNPSSCGAEKQKGAKSSADCASLVPQCA
[1]
  M-8 readings: 187328
[2]
  IPR readings, Experiment 1: 29294
  IPR readings, Experiment 2: 27303
[2]; same amounts of plasmids
  fold higher ECL signal compared to RGS4C2V: 3–4 fold
[2]; typical experiment
  fold higher ECL signal compared to the empty vector: 5–15 fold
[3]; reticulocyte lysate +
  IPR readings: 85993
[3]; typical assay
  fold higher ECL signal compared to the empty vector: 15–30 fold
[4]
  IPR readings, Experiment 1: 23441
  IPR readings, Experiment 2: 23137
[4]; same amounts of plasmids
  fold higher ECL signal compared to RGS4C2V: 3–5 fold
[4]; typical assay
  fold higher ECL signal compared to the empty vector: 30–100 fold
[5]
  M-8 readings, Experiment 1: 87339
  M-8 readings, Experiment 2: 71463

B2: RGS4-C2V: RGS4C2V mutant, in vitro translated from pcDNA3-RGS4-C2V (protein, UniProt P49798 1-205, looked up, variant C2V)
Regulator of G-protein …: B1 Regulator of G-protein … with C2V
[1]
  M-8 readings: 14689
[2]
  IPR readings, Experiment 1: 7744
  IPR readings, Experiment 2: 7614
[4]
  IPR readings, Experiment 1: 5567
  IPR readings, Experiment 2: 5362
[5]
  M-8 readings, Experiment 1: 30201
  M-8 readings, Experiment 2: 26712

B3: 3919253: IMAGE clone protein: BMX non-receptor tyrosine kinase (protein)
chain: MDTKSILEELLLKRSQQKKKMSPNNYKERLFVLTKTNLSYYEYDKMKRGSRKGSIEIKKIRCVEKVNLEEQTPVERQYPFQIVYKDGLLYVYASNEESRSQWLKALQKEIRGNPHLLVKYHSGFFVDGKFLCCQQSCKAAPGCTLWEAYANLHTAVNEEKHRVPTFPDRVLKIPRAVPVLKMDAPSSSTTLAQYDNESKKNYGSQPPSSSTSLAQYDSNSKKIYGSQPNFNMQYIPREDFPDWWQVRKLKSSSSSEDVASSNQKERNVNHTTSKISWEFPESSSSEEEENLDDYDWFAGNISRSQSEQLLRQKGKEGAFMVRNSSQVGMYTVSLFSKAVNDKKGTVKHYHVHTNAENKLYLAENYCFDSIPKLIHYHQHNSAGMITRLRHPVSTKANKVPDSVSLGNGIWELKREEITLLKELGSGQFGVVQLGKWKGQYDVAVKMIKEGSMSEDEFFQEAQTMMKLSHPKLVKFYGVCSKEYPIYIVTEYISNGCLLNYLRSHGKGLEPSQLLEMCYDVCEGMAFLESHQFIHRDLAARNCLVDRDLCVKVSDFGMTRYVLDDQYVSSVGTKFPVKWSAPEVFHYFKYSSKSDVWAFGILMWEVFSLGKQPYDLYDNSQVVLKVSQGHRLYRPHLASDTIYQIMYSCWHELPEKRPTFQQLLSSIEPLREKDKH
[6]
  normalized ECL signal, pY1068 spot: 3
[7]
  ECL signal: 443,933
pEY
  HTS signal: 523,662

— US7063946B2, “Methods, reagents, kits and apparatus for protein function analysis” (Meso Scale Technologies, LLC., priority 2001, dated 2006)
